Measurements published in publication PMC8551311, “Energy transfer between the nicotinamide nucleotide transhydrogenase and ATP synthase of Escherichia coli” (Scientific Reports, 2021).

How the values were obtained:
Assay in all cases: purified protein
Assay type in all cases: biochemical, Escherichia coli
purified protein [1] = substrate: NC(=O)C1=CN([C@@H]2O[C@H](COP(=O)(O)OP(=O)(O)OC[C@H]3O[C@@H](n4cnc5c(N)ncnc54)[C@H](O)[C@@H]3O)[C@@H](O)[C@H]2O)C=CC1; details: apparent, forward reaction, 0.5 mM NADP+ held constant by glutathione reductase/oxidized glutathione, 50 mM HEPES pH 7.5, 0.1% DDM
purified protein [2] = substrate: NC(=O)C1=CN([C@@H]2O[C@H](COP(=O)(O)OP(=O)(O)OC[C@H]3O[C@@H](n4cnc5c(N)ncnc54)[C@H](OP(=O)(O)O)[C@@H]3O)[C@@H](O)[C@H]2O)C=CC1; details: apparent, reverse reaction, 0.5 mM NAD+ held constant by lactate dehydrogenase/pyruvate, 50 mM HEPES pH 7.5, 0.1% DDM
purified protein [3] = substrate: NC(=O)c1ccc[n+]([C@@H]2O[C@H](COP(=O)(O)OP(=O)(O)OC[C@H]3O[C@@H](n4cnc5c(N)ncnc54)[C@H](O)[C@@H]3O)[C@@H](O)[C@H]2O)c1; details: apparent, reverse reaction, 100 μM NADPH held constant by glucose-6-phosphate dehydrogenase/D-glucose-6-phosphate, 5 mM MgCl2, 50 mM HEPES pH 7.5, 0.1% DDM
purified protein [4] = substrate: NC(=O)c1ccc[n+]([C@@H]2O[C@H](COP(=O)(O)OP(=O)(O)OC[C@H]3O[C@@H](n4cnc5c(N)ncnc54)[C@H](OP(=O)(O)O)[C@@H]3O)[C@@H](O)[C@H]2O)c1; details: apparent, forward reaction, NADH held constant by alcohol dehydrogenase/ethanol (50 μM in methods, 500 μM in results), 6 mM hydrazine, 50 mM HEPES pH 7.5, 0.1% DDM

B1: E. coli transhydrogenase (TH, EcTH) (Escherichia coli K-12) (protein)
chain 1: MRIGIPRERLTNETRVAATPKTVEQLLKLGFTVAVESGAGQLASFDDKAFVQAGAEIVEGNSVWQSEIILKVNAPLDDEIALLNPGTTLVSFIWPAQNPELMQKLAERNVTVMAMDSVPRISRAQSLDALSSMANIAGYRAIVEAAHEFGRFFTGQITAAGKVPPAKVMVIGAGVAGLAAIGAANSLGAIVRAFDTRPEVKEQVQSMGAEFLELDFKEEAGSGDGYAKVMSDAFIKAEMELFAAQAKEVDIIVTTALIPGKPAPKLITREMVDSMKAGSVIVDLAAQNGGNCEYTVPGEIFTTENGVKVIGYTDLPGRLPTQSSQLYGTNLVNLLKLLCKEKDGNITVDFDDVVIRGVTVIRAGEITWPAPPIQVSAQPQAAQKAAPEVKTEEKCTCSPWRKYALMALAIILFGWMASVAPKEFLGHFTVFALACVVGYYVVWNVSHALHTPLMSVTNAISGIIVVGALLQIGQGGWVSFLSFIAVLIASINIFGGFTVTQRMLKMFRKN
chain 2: MSGGLVTAAYIVAAILFIFSLAGLSKHETSRQGNNFGIAGMAIALIATIFGPDTGNVGWILLAMVIGGAIGIRLAKKVEMTEMPELVAILHSFVGLAAVLVGFNSYLHHDAGMAPILVNIHLTEVFLGIFIGAVTFTGSVVAFGKLCGKISSKPLMLPNRHKMNLAALVVSFLLLIVFVRTDSVGLQVLALLIMTAIALVFGWHLVASIGGADMPVVVSMLNSYSGWAAAAAGFMLSNDLLIVTGALVGSSGAILSYIMCKAMNRSFISVIAGGFGTDGSSTGDDQEVGEHREITAEETAELLKNSHSVIITPGYGMAVAQAQYPVAEITEKLRARGINVRFGIHPVAGRLPGHMNVLLAEAKVPYDIVLEMDEINDDFADTDTVLVIGANDTVNPAAQDDPKSPIAGMPVLEVWKAQNVIVFKRSMNTGYAGVQNPLFFKENTHMLFGDAKASVDAILKAL
Km (purified protein [1]): 6.8 ± 1 µM | Km (purified protein [2]): 4.1 ± 1.2 µM | Km (purified protein [3]): 108 ± 12 µM | Km (purified protein [4]): 37 ± 7 µM
